# Measured values: patent US11732029B2, “Methods and compositions for the treatment of wounds” (The University of Chicago, priority 2017, dated 2023)
# Read-outs that look alike come from different tables or passages of the source.
# T1: PlGF-2 (Homo sapiens, UniProt P49763)
# T1 sequence (P49763 19-170 isoform P49763-3 limits assumed): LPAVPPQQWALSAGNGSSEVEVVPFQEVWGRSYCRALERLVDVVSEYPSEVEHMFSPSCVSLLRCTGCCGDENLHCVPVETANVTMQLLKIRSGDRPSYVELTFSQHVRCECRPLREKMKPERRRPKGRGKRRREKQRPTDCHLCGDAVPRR
# T2: VEGF-A165 (Homo sapiens, UniProt P15692)
# T2 construct: All growth factors (GFs) and chemokines were purchased in their mature forms; purchased PeproTech; host or cells: Escherichia coli
# T2 sequence (P15692 27-191 isoform P15692-4 limits assumed): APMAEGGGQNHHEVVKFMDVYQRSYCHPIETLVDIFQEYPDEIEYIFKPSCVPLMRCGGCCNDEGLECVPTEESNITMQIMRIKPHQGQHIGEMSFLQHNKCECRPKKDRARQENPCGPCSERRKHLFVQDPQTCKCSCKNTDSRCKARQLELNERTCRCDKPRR
# T3: VEGF-A121 (Homo sapiens, UniProt P15692)
# T3 sequence (P15692 27-147 isoform P15692-9 limits assumed): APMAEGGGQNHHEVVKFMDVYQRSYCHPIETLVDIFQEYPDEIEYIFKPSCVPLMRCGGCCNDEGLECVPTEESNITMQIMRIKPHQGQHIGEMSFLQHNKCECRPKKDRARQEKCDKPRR
# T4: PlGF-1 (Homo sapiens, UniProt P49763)
# T4 sequence (P49763 19-149 isoform P49763-2 limits assumed): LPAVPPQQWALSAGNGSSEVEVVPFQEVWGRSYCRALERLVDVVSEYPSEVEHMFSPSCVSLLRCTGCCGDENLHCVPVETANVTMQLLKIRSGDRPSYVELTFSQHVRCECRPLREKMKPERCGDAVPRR
# Columns and labels:
# FGF-2 = FGF-2 (Homo sapiens, UniProt P09038); assay: GF binding to recombinant laminin LG domain protein and synthesized laminin HBD peptides (ELISA); set-up: All growth factors (GFs) and chemokines were purchased in their mature forms; purchased PeproTech; host or cells: Escherichia coli; details: plate coated with LG domain protein or peptide, 1 μg/mL GF, vs BSA-coated wells
# Description: (§1) ELISA tests were performed as described above. In brief, ELISA plates were coated with 1 μg/mL of laminin alpha 3 LG domain recombinant protein, laminin alpha 4 LG domain recombinant protein (R&D systems), laminin alpha 5 LG domain recombinant protein (LD BioPharma), or laminin peptide (sequences are described in Table 1, chemically synthesized by Genscript) in PBS for 2 hrs at 37° C. 1 μg/mL of BSA served as non-binding protein control. After blocking with 2% BSA PBS-0.05% Tween 20 (PBS-T) solution, 1 μg/mL of the recombinant human proteins (VEGF-A121, VEGF-A165, PlGF-1, PlGF-2, PDGF-BB or FGF-2) or 10 μg/mL of biotinylated heparin (Sigma-Aldrich) were added. Bound GF was detected with biotinylated antibodies for human VEGF, PlGF, PDGF-BB, or FGF-2 (R&D Systems). The antibodies were detected by streptavidin-HRP (R&D Systems).
# PlGF-2 = molecular target: T1, PlGF-2; assay: as above; set-up: All growth factors (GFs) and chemokines were purchased in their mature forms; purchased PeproTech; host or cells: Escherichia coli; details: plate coated with LG domain protein or peptide, 1 μg/mL GF, vs BSA-coated wells
# Description: as §1
# human lung fibroblasts = assay: Cell adhesion assay, fibroblasts on laminin peptide coated plates; assay type: cell-based; set-up: key to Cell adhesion Fibroblasts: ++ indicates high affinities; + indicates medium/low affinities
# Description: (§2) 96-well plates (non-tissue culture treated, Greiner Bio-one) were pre-coated with 1 μg/mL with laminin HBD peptides in PBS for 2 hrs at 37° C., followed by blocking with 2% BSA PBS for 1 h at RT. Cell adhesion assays were performed using human lung fibroblasts (Lonza) in FGM-2 medium (Lonza) or human umbilical vein endothelial cells (HUVEC; Lonza) in EGM-2 medium (Lonza) supplemented with 1% fetal bovine serum (FBS) and […] VEGF-A165, with or without 5 mM EDTA (Sigma-Aldrich). Cells were plated at 3000 cells/well on laminin peptide pre-coated plates and incubated for 30 min at 37° C., 5% CO2. Then, the medium was removed, and wells were quickly washed three times with PBS. Cell numbers were quantified using a CyQUANT assay, according to the manufacturer's instructions (Invitrogen). All cell lines were checked for mycoplasma contamination and used in passages from 5 to 8.
# [1] = tested on: syndecan-1, syndecan-2, syndecan-3, syndecan-4; assay: Recombinant syndecan binding to synthesized laminin HBD peptides (ELISA); set-up: species or system human; key to Interaction with Syndecans: ++ indicates high affinities; + indicates medium/low affinities
# Description: ELISA tests were performed as described above. In brief, ELISA plates were coated with 1 μg/mL laminin peptide (sequences are described in Table 1, chemically synthesized by Genscript) in PBS for 2 hrs at 37° C. 1 μg/mL of BSA served as non-binding protein control. After blocking with 2% BSA PBS-T solution, 1 μg/mL of the recombinant human syndecan-1, syndecan-2, syndecan-3, syndecan-4 (all syndecan proteins are histidine-tagged; SinoBiological) were added. Bound GF was detected with anti-histidine tag antibody (1:1000 dilution, BioLegend).
# HUVEC cells = assay: Migration assay (transwell); assay type: cell-based, human; details: 6 hr, 30 ng/mL VEGF-A165 with or without 0.1 μM peptide
# Description: A migration assay was performed as described previously^3. A QCM 24-Well Colorimetric Cell Migration Assay kit was used to perform migration assay. Both sides of inserts were coated with 0.1 μM of bovine collagen I (C4243, Sigma-Aldrich) for 1 hr at 37° C. Then, the inserts were washed with water, dried in a laminar flow cabinet and disposed on 24-well cell culture plate covers. Solutions containing 30 ng/mL of VEGF-A165 preincubated with or without 0.1 μM of α33043-3067 peptide in medium (MCDB-131, 0.05% BSA) were added to the bottom side of the transwell (500 μL/well). Directly thereafter, HUVEC cells in medium containing 0.05% BSA (300 μL/transwell, 4×10^4 cells/transwell) were added to the transwell upper parts. After 6 hr, migrated cells were stained and absorbance at 560 nm was measured according to the manufacturer's instructions.
# [2] = Heparin binding to synthesized laminin peptides (ELISA); set-up: key to Interaction with Heparin: ++ indicates high affinities; + indicates medium/low affinities
# Description: as §1
# GFs = assay: GF binding to synthesized laminin peptides (ELISA), all tested GFs together; set-up: species or system human; key to Interaction with GFs: ++ indicates high affinities; + indicates medium/low affinities; details: summary Table 2
# Description: as §1
# PDGF-BB [3] = molecular target: T5, PDGF-BB (Homo sapiens, UniProt P01127); assay: GF binding to recombinant laminin LG domain protein and synthesized laminin HBD peptides (ELISA); details: plate coated with LG domain protein or peptide, 1 μg/mL GF, vs BSA-coated wells
# T5 construct: All growth factors (GFs) and chemokines were purchased in their mature forms; purchased PeproTech; host or cells: Escherichia coli
# Description: as §1
# VEGF-A165 [4] = molecular target: T2, VEGF-A165; assay: as above; details: plate coated with LG domain protein or peptide, 1 μg/mL GF, vs BSA-coated wells
# Description: as §1
# HUVEC = assay: Cell adhesion assay, HUVEC on laminin peptide coated plates; assay type: cell-based, human; set-up: key to Cell adhesion HUVECs: ++ indicates high affinities; + indicates medium/low affinities
# Description: as §2
# [5] = Ishihara et al. 2018; Martino et al. 2013; cited from earlier work
# [6] = tested on: wound healing in the db/db mouse; details: cited from earlier work
# VEGF-A121 = molecular target: T3, VEGF-A121; assay: GF binding to recombinant laminin LG domain protein and synthesized laminin HBD peptides (ELISA); set-up: All growth factors (GFs) and chemokines were purchased in their mature forms; purchased PeproTech; host or cells: Escherichia coli; details: plate coated with LG domain protein or peptide, 1 μg/mL GF, vs BSA-coated wells
# Description: as §1
# PlGF-1 = molecular target: T4, PlGF-1; assay: as above; set-up: All growth factors (GFs) and chemokines were purchased in their mature forms; purchased PeproTech; host or cells: Escherichia coli; details: plate coated with LG domain protein or peptide, 1 μg/mL GF, vs BSA-coated wells
# Description: as §1
# PDGF-BB [7] = molecular target: T5, PDGF-BB; assay: Surface plasmon resonance, laminin against GF; details: SPR; laminin protein immobilized on chip, GF flowed; Langmuir binding kinetics
# Description: (§3) SPR analysis was performed as described previously^2. In brief, measurements were made with a Biacore 3000 SPR system (GE Healthcare). Laminin-521 or laminin α32928-3150 was immobilized via amine coupling on a C1 chip (GE Healthcare) for ˜2000 or ˜1000 resonance units (RU), respectively, according to the manufacturer's instructions. VEGF-A165, PDGF-BB, or PlGF-2 was flowed at increasing concentrations in the running buffer at 20 μL/min. The sensor chip was regenerated with 50 mM NaOH for every cycle. Specific bindings of GFs to laminin were calculated by comparison to a non-functionalized channel used as a reference. Experimental results were fitted with Langmuir binding kinetics using BIAevaluation software (GE Healthcare).
# VEGF-A165 [8] = molecular target: T2, VEGF-A165; assay: Surface plasmon resonance, laminin against GF; details: SPR; laminin protein immobilized on chip, GF flowed; Langmuir binding kinetics
# Description: as §3
# [9] = peptide-coated plates, 30 min at 37° C., without EDTA
# Chain of FGF-2 (P09038 143-288): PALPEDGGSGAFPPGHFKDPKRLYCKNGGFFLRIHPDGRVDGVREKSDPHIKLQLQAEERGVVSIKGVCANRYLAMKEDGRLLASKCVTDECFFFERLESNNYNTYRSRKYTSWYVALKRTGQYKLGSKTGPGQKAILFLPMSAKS
molecule,measurement,setting,value
"RLVFALGTDGKKLRIKSKEKCNDGK [α33043-3067, laminin α3 chain LG4-derived peptide, 25 aa]",binding to FGF-2,FGF-2,bound
same,binding to PlGF-2,PlGF-2,bound
same,fibroblast attachment,human lung fibroblasts; [9],enhancement of fibroblast attachment
same,Cell adhesion Fibroblasts,human lung fibroblasts; summary Table 2,++
same,binding to recombinant syndecans (syndecan 1-4),"[1]; ELISA, peptide-coated plate, 1 μg/mL syndecan",significant binding
same,Interaction with Syndecans,[1]; summary Table 2,++
same,degree of migration of HUVEC cells,HUVEC cells,did not increase the degree of cell migration
same,binding to heparin,"[2]; ELISA, peptide-coated plate, 10 μg/mL biotinylated heparin",bound to heparin
same,Interaction with Heparin,[2]; summary Table 2,++
same,Interaction with GFs,GFs,++
same,binding to PDGF-BB,PDGF-BB [3],bound
same,binding to VEGF-A165,VEGF-A165 [4],bound
same,HUVEC attachment in the presence of EDTA,"HUVEC; peptide-coated plates, 30 min, 5 mM EDTA",even in the presence of EDTA
same,HUVEC attachment,HUVEC; [9],promoted HUVEC attachment
same,Cell adhesion HUVECs,HUVEC; summary Table 2,++
GCGGSLRPAPPPISGGGYRARPAKAAATQKKVERKAPDA [FgHBD],binding to heparin,[5],bind to heparin
PDGF-BB: platelet-derived growth factor-BB; Regranex in the clinic (protein) SLGSLTIAEPAMIAECKTRTEVFEISRRLIDRTNANFLVWPPCVEVQRCSGCCNNRNVQCRPTQVQLRPVQVRKIEIVRKKPIFKKATVTLEDHLACKCETVAAARPVT,wound healing in the db/db mouse,[6]; 10 μg per wound,did not significantly enhance wound healing
"VEGF-A165: vascular endothelial growth factor-A165, recombinant (PeproTech) (protein) APMAEGGGQNHHEVVKFMDVYQRSYCHPIETLVDIFQEYPDEIEYIFKPSCVPLMRCGGCCNDEGLECVPTEESNITMQIMRIKPHQGQHIGEMSFLQHNKCECRPKKDRARQENPCGPCSERRKHLFVQDPQTCKCSCKNTDSRCKARQLELNERTCRCDKPRR",wound healing in the db/db mouse,[6]; 20 μg per wound applied topically for five consecutive days,promote wound healing
same,degree of migration of HUVEC cells,HUVEC cells,increases the degree of migration
LamLG4: laminin α-chain LG4 domain used as growth factor-binding domain (protein) SLNKPPFLMLLKGSTRFNKTKTFRINQLLQDTPVASPRSVKVWQDACSPLPKTQANHGALQFGDIPTSHLLFKLPQELLKPRSQFAVDMQTTSSRGLVFHTGTKNSFMALYLSKGRLVFALGTDGKKLRIKSKEKCNDGKWHTVVFGHDGEKGRLVVDGLRAREGSLPGNSTISIRAPVYLGSPPSGKPKSLPTNSFVGCLKNFQLDSKPLYTPSSSFGVSSCTG,binding to heparin,[5],bind to heparin
"α32928-3150: recombinant human laminin alpha 3 LG domain Ser2928-Cys3150 (linker domain and LG4 domain), 6 His (protein) HHHHHHSLNKPPFLMLLKGSTRFNKTKTFRINQLLQDTPVASPRSVKVWQDACSPLPKTQANHGALQFGDIPTSHLLFKLPQELLKPRSQFAVDMQTTSSRGLVFHTGTKNSFMALYLSKGRLVFALGTDGKKLRIKSKEKCNDGKWHTVVFGHDGEKGRLVVDGLRAREGSLPGNSTISIRAPVYLGSPPSGKPKSLPTNSFVGCLKNFQLDSKPLYTPSSSFGVSSC",binding to VEGF-A121,VEGF-A121,did not show any binding
same,binding to PlGF-1,PlGF-1,did not show any binding
same,binding to FGF-2,FGF-2,bound
same,binding to PlGF-2,PlGF-2,bound
same,binding to PDGF-BB,PDGF-BB [3],bound
same,binding to VEGF-A165,VEGF-A165 [4],bound
same,Kd,PDGF-BB [7],10.2 nM
same,Kd,VEGF-A165 [8],1.2 nM
